The sequences below were run on K4 kissing-loop RNA reporter (assay: apparent KD of K4 kissing-loop reporter; higher = weaker reporter binding). Settings: Eterna round: R107; input ligand: arginine 13.2 mM.
Description: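 RNA-MaP round R107: designed RNA switches with theophylline, tryptophan, arginine or FMN aptamers are transcribed on-chip within common flanks. They are titrated with a labelled K4 kissing-loop RNA reporter in RNA-MaP buffer (100 mM Tris pH 7.5, 80 mM KCl, 4 mM MgCl2), without ligand or with the indicated ligand. Median apparent KD per design.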
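Further: bound reporter read as fluorescence of individual clusters on recovered sequencing chips by microscopy, with normalized cluster intensities fitted with a binding model.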

Row | Sequence | apparent KD of K4 kissing-loop reporter [nM]
1 | UCGAACGAUGGAAGGAGCGCUCGUCAGCCCUGCGAGUGAUGUUCGUGGGUAAAUAGUCGCGAGCAGGUAGGUCGCCAUCUUGAGC [Zainsotima] | 101
2 | CCGGAGGAAGUCGCUUUUCCUGUGGCAUAGAAGGAUAUCCAAUUAAGGAGAAGGUCUAUCUGCCUUAGUGAUGUUAGGAAGUAGA [theeternabot_sameState_KL_FMN_A_23] | 89.1
3 | UGCGGUAGUGAUGUUACCUCAUUAUACUAGCGAGGACCGGUACGGCCGCCACUCGACUUCCUCCACGCCUAGGCCUCUACGUUCA [theeternabot_sameState_KL_Trp_A_36] | 122
4 | GUGAAGGAGCUGCAGUGAUGUUGCAGAGACUAGGAUAUCAGGAAACUGAGAAGGAGUCAACUCCUUCACCUAGACACUGCAGAAA [[F]''-[K1]-[K2]-[F1]-[F2]-[F2]'-[F1]'-[K]'_Design1] | 108
5 | AAAGUUGAUGAGUUGGGUAUGUGUUCCGAAGGAGCGAGAAUUAUCUCAGGUAGGUCGCGGAACAUGAGUGAUGUUCAUGUAUAAA [KL-XArg-A7 #analogue] | 436
6 | UGGGAUGGGCGAGGAUAUGGUGAUGUUUGGGUUGUUAGUGAUGUUGGUGAUGCUGGUGGUGUUUGUCCAGAAGGCGCGGUUUUUU [Bdazzled 3] | 64.1
7 | CAUAGGAAACUAUGUAUCUCUCCGACUGAAGGAGCGCGUGAAAACGCAGGUAGGUCGCAGAAUUUAACGGAGAGUGAUGUUCUCU [Ex Arginine A K4 10] | 295
8 | GCAAAACGCAGUGAUGUUGCGAUAUCGGAAGGAGCGCGUGAAAACGCAGGUAGGUCGCCGAUUCAGUGAGUAUCUCGCUGUUUGC [Arginine A K4 18] | 283
9 | ACGCUGGUGAAUAACACUAGCGAAUAAUUCCGAGGACCGGUACGGCCGCCACUCGGCUAACUGCGAGUGAUGUUCGAUAAUAAAA [Mat - Mod of OpenEnded 3 - D10] | 158
10 | UGGACUAGUGUGAGUGAUGUUCACUUCGAUACCAGCAGAGCGAUCUGCCCUUGGCAGCGAGUUAACUGCCGAAAGGCAAGGUCCA [Theo B SS t9a] | 478
11 | AAGGCCACGAGAAGGAGCGUGUUGUGGAGUGAUGUUCCAUUGUAGACCUAAGGUCUGCGAGCACAGGUAGGUCGCUCGUGGUCAA [whbob_SS_Arginine_B_2t150] | 116
12 | AGUAGGAAACUACAAUCCUCUCUUACUGAAGGAGCGCGUGAAAACGCAGGUAGGUCGCAGGAUUGGAGAGUGAUGUUCUCCUUAA [Ex Arginine A K4 17] | 331
13 | AAUAAAAUCACGGCCGCCACUGAUUAGCAUAUUAGGAGUGAUGUUUCUAUGACUAUAUAAUUGAACAGGACCGGGUGAAUAUUUA [#20 K4 Tryptophan B Exclusion] | 294
14 | GUAUCGCUAGGAGGAUAUUUCAAAUAAUAAAUAAAUGGUUAUACGGAGUGAUGUUCCGAUUUACGGAAAGAAGGCCUAGUGAUAC [FMN B 3] | 144
15 | CUUCGUAAAGGCCCAGUGAUGUUGGGCACUCGAGGACCGGUACGGCCGCCACUCGCUCCCUAAGUCGCGCGCGUGGGCCACCGCC [Xeteoredre] | 110
16 | GCAGUGAUGUUGCACGAGUAGGGUAGAGUACGAGGACCGGUACGGCCGCCACUCGUACGGAACUCGCUAAUUUAUGGAAUGGUGA [I] | 590
17 | CGAGUGAUGUUCGUUCGUAUAUUUGGGUGACAGGAUAUGCGGAAACGCAGAAGGGUCGCCUUCGGGUUACCCGAAUUGGCGUUUU [FMN A Model 2] | 402

Row | Sequence | apparent KD of K4 kissing-loop reporter [nM]
18 | AUCAUAUCUAGUCAGCCCAGUGAUGUUGGGCGAGGACCGGUACGGCCGCCACUCGCUUCGUUGCGGUGGCUGGCGUUACGACAAA [Inveusma] | 142
19 | AAUAAGGUCGCCGAUACCAGCGCAGGCAGAGCAAAGCUCUGCCAGGUAGUGAUGUUACCGCGCCCUUGGCAGCGGUGGCACGACC [Omei KL Theo B SS C v2] | 357
20 | UUUCUACCGGGAAGGAGCGUGAAUGAUAAUGGAUAUAGUGAUGUUAUAUAUAAGAACGAAUCGCAGGUAGGUCGCCCGGAUGACU [SSArgB.S] | 333
21 | AAAUAAAGGGCGGCCGCCACUGAUCGCCUCCGCGUGGGUAUGUAGUGAUGUUAUAUGGCCGCCAUCAGGACCGGGCCAAAUAAAA [#10 K4 Tryptophan B Same State] | 187
22 | CGAGAAUGUCGACAGUCAUCGGUCCAUGCACGAGGACCGGUACGGCCGCCACUCGAGCGUGGCAGUGAUGUUGCCAGCGCACUAA [KL-XTryp-A14] | 85.1
23 | AAACAUCACUGGGAGUGAUGUUCUCAGUGACGAGGACCGGUACGGCCGCCACUCGCGAGAGAUAUAGGUAAGUAAUGACAUCAUU [Excl Tryptophan A V5] | 282
24 | UCCUAGGUCUUCAGGCGAAAGCCCUGCGAAGGAGCGUGCGAAAGCACAGGUAGGUCGCGCAGUGAUGUUGCACCUAGGUAAUAAA [#SwitchBubble 21 #K4Late] | 111
25 | UAGCAUUUGCUCGAGUGAUGUUCGAGCGAAGGAGCGCGAGAAAUCGCAGGUAGGUCGCGCUCGAACUAUGAGCGAUCAUUUAUUA [Arg A Ex t2c] | 217
26 | ACCCUACUCGGGCGGCUAUACAGUUAAGCUAAGGAUAUGUAUUCGUACAGAAGGUAGAAGAAGCCGAGUGAUGUUCGACACGCCC [theeternabot_sameState_KL_FMN_A_24] | 386
27 | GGGAAGAAGGCGGCCGCCACUGCAGAAGAGACAGAGAGAGAAGAAGAGGAGUGAUGUUCCAAGAACAGGACCGGGCCAAGAAGGG [whbob_SS_Tryp_B_t28] | 84.2
28 | ACUGGGUUGACGAAAGUCAACAAAAGAGAAGGAGCGCACGAAAGUGCAGGUAGGUCGCUCAUCCAGUGAUGUUGGAUCAUCCAGA [#SwitchBubble 17 #K4Late] | 679
29 | AGUUCCGACGGAAGGAGCGGACAGUAUUGACGGAAAGGUGCAAGUGAUGUUUGCGCUUGUGUCCAGGUAGGUCGCCGUCGGAACA [Arg B SS t13] | 82.4
30 | AGUGGACAUGUCUAGAGUGAUGUUCUGGAUACCAGACACGAAAGUGUCCCUUGGCAGCCGGAGUGAUGUUCUGGAGUUCACUAAA [Omei KL Theo A Exc B v8] | 296
31 | UGUCGAGUGAUGUUCGAUGUGGUGCAUGCAGAGGAUAUAGGGUGGGCUAGAAGGCUGAAAAGUGCUUCGAGUGAUGUUCGAAGAU [Exclusion FMN A GF9] | 112
32 | GCCGCCGCGGCAGGAUAUAGGUUCAUGGAGUGAUGUUCCAUAACCCGAGUGAUGUUCGUUAUCCGCCUAGAAGGGCCGCGGCGGC | 166
33 | GCCGUACGCAUGGAUACCAGCUAUUAGAGUGAUGUUCUAUGGCCCUGCCAGAGUAGCUGUAGCCCUUGGCAGCCAUGCGUACGGC | 119

Same assay, conditions: Eterna round: R107; input ligand: none

Row | Sequence | apparent KD of K4 kissing-loop reporter [nM]
34 | UGACAUUGCUCAGAUACCAGACAUGAGCAUCAGCCAUGUGCCAAAUACGUACAAAUAAAUGUCCCUUGGCAGCUGAGCAAUGUCU [TheoBX 12] | 37.5
35 | GGUUUAUAGGAGGAUACCAGUACGGAUAAAGUACGUUAAUAGUAGAGUGAUGUUCUAAAGUACCCUUGGCAGCUUAGAGUGAGUU [ExTheophylB.L] | 122
36 | AACAGCAAUGCGGCCGCCACUUCGAGGUCAGUGAUGUUGACAGAAUUAAAUAAAGAUCCCAAGAGGAGGACCGGGCAGUGCUGUU [whbob_SS_Tryp_B_t24] | 674
37 | UUUCGGUUCUGAGGAUAUUCGGACAAAUAUAGUGAUGUUGUAUAAGGAGGAGGGUGUUGGCAGUGAGGAGAAGGCAGAAGAGGAU [ExFMNB.T] | 946
38 | GGAUAGGACAGAGGAUAUCUCUGAGGCAAGAAAACUUGUCUCUAAGGAGAUGACUCAGUGAUGUUGAGAGAAGGCUGUCCUAUCG [FmnBX 12 - #SwitchBubble #StaticStem] | 155
39 | GGGAGUGAUGUUCCCACGUUGUCGGUCCUUCGAGGACCGGUACGGCCGCCACUCGCGACCCAGUGAUGUUGGGAUUCACCGUACC [Exclusion Tryptophan A Gf 13] | 471
40 | AAAUAAAGCAGUCACCCAGUGAUGUUGGAAGGAGCGUGCGAAAGCACAGGUAGGUCGCCAAAACCUAAUACUGGCUGCUAAAUAA [#03 K4 Arginine A Exclusion] | 285
41 | CGUUUAUAGCAGGAUACCAGUGCGGAUAAGGUGCGUUAAUAGUAGAGUGAUGUUCUAAAGUACCCUUGGCAGCUUAGAGUGAGUG [#21 K4 Theophylline B Exclusion] | 145
42 | AACUGGGUUCGUGAUACCAGCUCACACAUGAGUGAUGUUCAUGUAGUGGGCAAAAUGUGGAGCCCUUGGCAGCACUGUGACCACG [XTheo-B2] | 77
43 | CCAUCGCUAUUCGAUACCAGCUACUUAGUGAUGUUAAGUUUUUAUCCACUGUAGGUGGAAAGCCCUUGGCAGCGAAUAGUGAUGG [Theophylline B K4 26] | 474
44 | UCGAACGAUGGAAGGAGCGCUCGUCAGCCCUGCGAGUGAUGUUCGUGGGUAAAUAGUCGCGAGCAGGUAGGUCGCCAUCUUGAGC [Zainsotima] | 129
45 | CCGGAGGAAGUCGCUUUUCCUGUGGCAUAGAAGGAUAUCCAAUUAAGGAGAAGGUCUAUCUGCCUUAGUGAUGUUAGGAAGUAGA [theeternabot_sameState_KL_FMN_A_23] | 135
46 | UGCGGUAGUGAUGUUACCUCAUUAUACUAGCGAGGACCGGUACGGCCGCCACUCGACUUCCUCCACGCCUAGGCCUCUACGUUCA [theeternabot_sameState_KL_Trp_A_36] | 137
47 | GUGAAGGAGCUGCAGUGAUGUUGCAGAGACUAGGAUAUCAGGAAACUGAGAAGGAGUCAACUCCUUCACCUAGACACUGCAGAAA [[F]''-[K1]-[K2]-[F1]-[F2]-[F2]'-[F1]'-[K]'_Design1] | 128
48 | AAAGUUGAUGAGUUGGGUAUGUGUUCCGAAGGAGCGAGAAUUAUCUCAGGUAGGUCGCGGAACAUGAGUGAUGUUCAUGUAUAAA [KL-XArg-A7 #analogue] | 365
49 | UGGGAUGGGCGAGGAUAUGGUGAUGUUUGGGUUGUUAGUGAUGUUGGUGAUGCUGGUGGUGUUUGUCCAGAAGGCGCGGUUUUUU [Bdazzled 3] | 119
50 | CAUAGGAAACUAUGUAUCUCUCCGACUGAAGGAGCGCGUGAAAACGCAGGUAGGUCGCAGAAUUUAACGGAGAGUGAUGUUCUCU [Ex Arginine A K4 10] | 338
51 | GCAAAACGCAGUGAUGUUGCGAUAUCGGAAGGAGCGCGUGAAAACGCAGGUAGGUCGCCGAUUCAGUGAGUAUCUCGCUGUUUGC [Arginine A K4 18] | 293
52 | ACGCUGGUGAAUAACACUAGCGAAUAAUUCCGAGGACCGGUACGGCCGCCACUCGGCUAACUGCGAGUGAUGUUCGAUAAUAAAA [Mat - Mod of OpenEnded 3 - D10] | 103
53 | UGGACUAGUGUGAGUGAUGUUCACUUCGAUACCAGCAGAGCGAUCUGCCCUUGGCAGCGAGUUAACUGCCGAAAGGCAAGGUCCA [Theo B SS t9a] | 477
54 | AAGGCCACGAGAAGGAGCGUGUUGUGGAGUGAUGUUCCAUUGUAGACCUAAGGUCUGCGAGCACAGGUAGGUCGCUCGUGGUCAA [whbob_SS_Arginine_B_2t150] | 107
